This experiment has as its target Down-regulated Hck kinase (containing an N-terminal His6 tag). The experiment is described as follows: cell-based or functional assay.

In turn, HIV Nef protein came in with an Activity (nmol · sec^-1), activator at 50 micromolar (nmol · sec^-1) of 232 and a Fold-Activation, activator at 50 micromolar of 21 fold.

The record behind these values is US20100273722A1, “MODIFIED MINIATURE PROTEINS” (Yale University, priority 2007, published 2010).
